Measurements taken from the RNAGym collection of RNA variant scans (doi:10.7554/elife.80360).

B1: CPEB3 Ribozyme (parent)
chain: GGGGGCCACAGCAGAAGCGUUCACGUCGCGGCCCCUGUCAGAUUCUGGUGAAUCUGCGAAUUCUGCUGU

Variants of: B1
Assay: self-cleavage, relative activity (ratio to wild type); higher = more cleavage; co-transcriptional

Variant	self-cleavage
GGGGGCCACAGCACAAGCGUUCACGUCGCGACCCCUGUCAGAUUCUGGUGAAUCUGCGAAUUCUGCUGU	0.228
GGGGGCCACAGCACAAGCGUUCACGUCGCGCCCCCUGUCAGAUUCUGGUGAAUCUGCGAAUUCUGCUGU	0.167
GGGGGCCACAGCACAAGCGUUCACGUCGCGUCCCCUGUCAGAUUCUGGUGAAUCUGCGAAUUCUGCUGU	0.179
GGGGGCCACAGCACAAGCGUUCACGUCGCGGCCCCUGUCAGAUUCUGCUGAAUCUGCGAAUUCUGCUGU	0.677
GGGGGCCACAGCACAAGCGUUCACGUCGCGGCCCCUGUCAGAUUCUGAUGAAUCUGCGAAUUCUGCUGU	0.703
GGGGGCCACAGCACAAGCGUUCACGUCGCGGCCCCUGUCAGAUUCUGGGGAAUCUGCGAAUUCUGCUGU	0.689
GGGGGCCACAGCACAAGCGUUCACGUCGCGGCCCCUGUCAGAUUCUGGAGAAUCUGCGAAUUCUGCUGU	0.712
GGGGGCCACAGCACAAGCGUUCACGCCGCGGCCCCUGUCAGAUUCUGGUGAAUCUGCGAAUUCUGCUGU	0.327
GGGGGCCACAGCACAAGCGUUCACGGCGCGGCCCCUGUCAGAUUCUGGUGAAUCUGCGAAUUCUGCUGU	0.256
GGGGGCCACAGCAUAAGCGUUCACGUCGCGGCCCCUGUCAGUUUCUGGUGAAUCUGCGAAUUCUGCUGU	0.425
GGGGGCCACAGCAUAAGCGUUCACGUCGCGGCCCCUGUCAGCUUCUGGUGAAUCUGCGAAUUCUGCUGU	0.523
GGGGGCCACAGCACAAGCGUUCACGUCGCGGCCCCUGUCAGAUUCUGGUGAAUCUGCGAAUUCAGCUGU	0.432
GGGGGCCACAGCACAAGCGUUCACGUCGCGGCCCCUGUCAGAUUCUGGUGAAUCUGCGAAUUCCGCUGU	0.283
GGGGGCCACAGCACAAGCGUUCACGUCGCGGCCCCUGUCAGAUUCUGGUGAAUCUGCGAAUUCGGCUGU	0.546
GGGGGCCACAGCACAAGCGUUCACGUCGCGGCCCCUGUCACAUUCUGGUGAAUCUGCGAAUUCUGCUGU	0.192
GGGGGCCACAGCACAAGCGUUCACGUCGCGGCCCCUGUCAAAUUCUGGUGAAUCUGCGAAUUCUGCUGU	0.16
GGGGGCCACAGCACAAGCGUUCACGUCGCGGCCCCUGUCAUAUUCUGGUGAAUCUGCGAAUUCUGCUGU	0.231
GGGGGCCACAGCACAAGCGUUCACGUCGCGGCCCCUGUCAGAUUCUGGUGAAUCUCCGAAUUCUGCUGU	0.24
GGGGGCCACAGCACAAGCGUUCACGUCGCGGCCCCUGUCAGAUUCUGGUGAAUCUUCGAAUUCUGCUGU	0.236
GGGGGCCACAGCACAAGCGUUCACGUCGCGGCCCCUAUCAGAUUCUGGUGAAUCUGCGAAUUCUGCUGU	0.151
GGGGGCCACAGCACAAGCGUUCACGUCGCGGCCCCUCUCAGAUUCUGGUGAAUCUGCGAAUUCUGCUGU	0.127
GGGGGCCACAGCACAAGCGUUCACGUCGCGGCCCCUUUCAGAUUCUGGUGAAUCUGCGAAUUCUGCUGU	0.183
GGGGGCCACAGCACAAGCGUUCACGUCGCGGCCCCUGUCAGAUUCUGGUGAAUCUGCGAAUACUGCUGU	0.394
GGGGGCCACAGCACAAGCGUUCACGUCGCGGCCCCUGUCAGAUUCUGGUGAAUCUGCGAAUGCUGCUGU	0.368
GGGGGCCACAGCACAAGCGUUCACGUCGCGGCCCCUGUCAGAUUCUGGUGAAUCUGCGAAUCCUGCUGU	0.352
GGGGGCCACAGCACAAGCGUUCACCUCGCGGCCCCUGUCAGAUUCUGGUGAAUCUGCGAAUUCUGCUGU	0.167

Variant	self-cleavage
GGGGGCCACAGCACAAGCGUUCACAUCGCGGCCCCUGUCAGAUUCUGGUGAAUCUGCGAAUUCUGCUGU	0.142
GGGGGCCACAGCACAAGCGUUCACUUCGCGGCCCCUGUCAGAUUCUGGUGAAUCUGCGAAUUCUGCUGU	0.0786
GGGGGCCACAGCACAAGCGUUCACGUCACGGCCCCUGUCAGAUUCUGGUGAAUCUGCGAAUUCUGCUGU	0.154
GGGGGCCACAGCACAAGCGUUCACGUCCCGGCCCCUGUCAGAUUCUGGUGAAUCUGCGAAUUCUGCUGU	0.154
GGGGGCCACAGCACAAGCGUUCACGUCUCGGCCCCUGUCAGAUUCUGGUGAAUCUGCGAAUUCUGCUGU	0.148
GGGGGCCACAGCAUAAGCGUUCACGUCGCGGCCCCUGUCAGAUUCUGGUGCAUCUGCGAAUUCUGCUGU	0.61
GGGGGCCACAGCAUAAGCGUUCACGUCGCGGCCCCUGUCAGAUUCUGGUGGAUCUGCGAAUUCUGCUGU	0.842
GGGGGCCACAGCACAAGCGUUCACGUCGCGGCCCCUGUCAGAUUCUGGUAAAUCUGCGAAUUCUGCUGU	0.613
GGGGGCCACAGCACAAGCGUUCACGUCGCGGCCCCUGUCAGAUUCUGGUCAAUCUGCGAAUUCUGCUGU	0.405
GGGGGCCACAGCACAAGCGUUCACGUCGCGGCCCCUGUCAGAUUCUGGUUAAUCUGCGAAUUCUGCUGU	0.618
GGGGGCCACAGCAUAAGCGUUCACGUCGCGGCCCCUGUCGGAUUCUGGUGAAUCUGCGAAUUCUGCUGU	0.425
GGGGGCCACAGCAUAAGCGUUCACGUCGCGGCCCCUGUCUGAUUCUGGUGAAUCUGCGAAUUCUGCUGU	0.179
GGGGGCCACAGCACAAGCGUUCACGUCGCAGCCCCUGUCAGAUUCUGGUGAAUCUGCGAAUUCUGCUGU	0.255
GGGGGCCACAGCACAAGCGUUCACGUCGCGGCCCCUGGCAGAUUCUGGUGAAUCUGCGAAUUCUGCUGU	0.157
GGGGGCCACAGCACAAGCGUUCACGUCGCGGCCCCUGUCAGAGUCUGGUGAAUCUGCGAAUUCUGCUGU	0.246
GGGGGCCACAGCACAAGCGUUCACGUCGCGGCCCCUGUCAGAUUCUGGUGAAUCUGCAAAUUCUGCUGU	0.505
GGGGGCCACAGCACAAGCGUUCACGUCGCGGCCCCUGUCAGAUUCUGGUGAAUCUGCGAAUUCUCCUGU	0.231
GGGGGCCACAGCACAAGCGUUCACGUCGCGGCCCCUGUCAGAUUCUGGUGAAUCUGCGAAUUCUACUGU	0.291
GGGGGCCACAGCACAAGCGUUCACGUCGCGGCCCCUGUCAGAUGCUGGUGAAUCUGCGAAUUCUGCUGU	0.39
GGGGGCCACAGCACAAGCGUUCACGUCGCGGCCCCUGUCAGAUACUGGUGAAUCUGCGAAUUCUGCUGU	0.392
GGGGGCCACAGCACAAGCGUUCACGUCGCGGCCCCUGUCAGAUUCUGGUGAAUCUGCGAAUUCUGCUGG	0.726
GGGGGCCACAGCACAAGCGUUCACGUCGCGGCCCCUGUCAGAUUCUGGUGAAUCUGCGAAUUCUGCUGC	0.968
GGGGGCCACAGCACAAGCGAUCACGUCGCGGCCCCUGUCAGAUUCUGGUGAAUCUGCGAAUUCUGCUGU	0.102
GGGGGCCACAGCACAAGCGCUCACGUCGCGGCCCCUGUCAGAUUCUGGUGAAUCUGCGAAUUCUGCUGU	0.116
GGGGGCCACAGCACAAGCGUUCACGUCGCGGCCCCUGUCAGAUUCUGGUGAAUCAGCGAAUUCUGCUGU	0.22
GGGGGCCACAGCACAAGCGUUCACGUCGCGGCCCCUGUCAGAUUCUGGUGAAUCCGCGAAUUCUGCUGU	0.271

Variant	self-cleavage
GGGGGCCACAGCACAAGCGUUCACGUCGCGGCCCCUGUCAGAUUCUGGUGAAUCUGCGAAUUCUGCCGU	0.443
GGGGGCCACAGCACAAGCGUUCACGUCGCGGCCCCUGUCAGAUUCUGGUGAAUCUGCGAAUUCUGCAGU	0.468
GGGGGCCACAGCACAAGCGUUCACGUCGCGGCCCCUGUCAGAUUCUGGUGAAUCUGCGAAUUCUGCGGU	0.549
GGGGGCCACAGCAUACGCGUUCACGUCGCGGCCCCUGUCAGAUUCUGGUGAAUCUGCGAAUUCUGCUGU	0.123
GGGGGCCACAGCAUAUGCGUUCACGUCGCGGCCCCUGUCAGAUUCUGGUGAAUCUGCGAAUUCUGCUGU	0.363
GGGGGCCACAGCAUGAGCGUUCACGUCGCGGCCCCUGUCAGAUUCUGGUGAAUCUGCGAAUUCUGCUGU	0.843
GGGGGCCACAGCACAAGCGUCCACGUCGCGGCCCCUGUCAGAUUCUGGUGAAUCUGCGAAUUCUGCUGU	0.286
GGGGGCCACAGCACAAGCGUGCACGUCGCGGCCCCUGUCAGAUUCUGGUGAAUCUGCGAAUUCUGCUGU	0.11
GGGGGCCACAGCACAAGCGUACACGUCGCGGCCCCUGUCAGAUUCUGGUGAAUCUGCGAAUUCUGCUGU	0.477
GGGGGCCACAGCACAAGCGUUCACGUCGCGGCCCCAGUCAGAUUCUGGUGAAUCUGCGAAUUCUGCUGU	0.109
GGGGGCCACAGCACAAGCGUUCACGUCGCGGCCCCGGUCAGAUUCUGGUGAAUCUGCGAAUUCUGCUGU	0.19
GGGGGCCACAGCACAAGCGUUCACGUCGCGGCCCCCGUCAGAUUCUGGUGAAUCUGCGAAUUCUGCUGU	0.37
GGGGGCCACAGCACAAGCGUUCACGUCGCGGCCCCUGUCAGAUUCCGGUGAAUCUGCGAAUUCUGCUGU	0.48
GGGGGCCACAGCACAAGCGUUCACGUCGCGGCCCCUGUCAGAUUCGGGUGAAUCUGCGAAUUCUGCUGU	0.599
GGGGGCCACAGCACAAGCGUUCACGUCGCGGCCCCUGUCAGAUUCAGGUGAAUCUGCGAAUUCUGCUGU	0.651
GGGGGCCACAGCACAAGCGUUCACGUCGCGGCCCCUGUCAGAUUCUGGUGAAGCUGCGAAUUCUGCUGU	0.397
GGGGGCCACAGCACAAGCGUUCACGUCGCGGCCCCUGUCAGAUUCUAGUGAAUCUGCGAAUUCUGCUGU	0.729
GGGGGCCACAGCACAAGCGUUCACGUCGCGGCCCCUGUCAGAUUCUUGUGAAUCUGCGAAUUCUGCUGU	0.725
GGGGGCCACAGCACAAGCGUUCACGUCGCGGCCCCUGUCAGAUUCUGGUGAAUCUGCGAAAUCUGCUGU	0.346
GGGGGCCACAGCACAAGCGUUCACGUCGCGGCCCCUGUCAGAUUCUGGUGAAUCUGCGAAGUCUGCUGU	0.266
GGGGGCCACAGCAUAAGCGUUCGCGUCGCGGCCCCUGUCAGAUUCUGGUGAAUCUGCGAAUUCUGCUGU	0.452
GGGGGCCACAGCAUAAGCGUUCCCGUCGCGGCCCCUGUCAGAUUCUGGUGAAUCUGCGAAUUCUGCUGU	0.7
GGGGGCCACAGCAUAAGCGUUCUCGUCGCGGCCCCUGUCAGAUUCUGGUGAAUCUGCGAAUUCUGCUGU	0.986
GGGGGCCACAGCACAAGCGUUCACGUCGCGGCCCCUGUCAGAUUCUGGUGAAUCUGCGAAUUCUGCUAU	0.704
GGGGGCCACAGCACAAGCGUUCACGUCGCGGCCCCUGUCAGAUUCUGGUGAAUCUGCGAAUUCUGCUCU	0.607
GGGGGCCACAGCACAAGCGUUCACGUCGCGGCCCCUGUCAGAUUCUGGUGAAUCUGCGAAUUCUGCUUU	0.64
